The target in this assay is SARS-CoV-2 Omicron-S (SARS-CoV-2) (UniProt P0DTC2). The assay is described as follows: cryo-EM structure.

What is called stoichiometry N is the number of molecules, sites or subunits per partner or assembly. With “SARS-CoV-2 Omicron-S (from UniProt P0DTC2 340-527) (natural protein)”, the stoichiometry N is 3.

The values above are taken from PMC9080080.
